Test results taken from patent US20210395344A1 (TWIST BIOSCIENCE, published 2021).
Changes are numbered by the printed parent chain.

B1: 1-24 (antibody, V domains shown)
VH: EVQLLESGGGLVQPGGSLRLSCAASGFTFSSYAMNWVRQAPGKGLEWVSIISGSGGSTYYADSVKGRFTISRDNSKNTLYLQMNSLRAEDTAVYYCAREGYRDYLWYFDLWGQGTLVTVSS
VL: QSALTQPASVSGSPGQSITISCTGTSSDVGYYNLVSWYQQHPGKAPKLMIYEGNKRPSGVSNRFSGSKSGNTASLTISGLQAEDEADYYCCSYAGGSVVFGGGTKLTVL
B2: 1-30 (antibody, V domains shown)
VH: EVQLLESGGGLVQPGGSLRLSCAASGFTFSSYAMTWVRQAPGKGLEWVSAISGSGGSTFYADSVKGRFTISRDNSKNTLYLQMNSLRAEDTAVYYCTRPPYGDYGDYWGQGTLVTVSS
VL: QSALTQPASVSGSPGQSITISCTGTSRDVGSYNLVSWYQQHPGKAPKLMIYEGTKRPSGVSNRFSGSKSGNTASLTISGLQAEDEADYYCCSYAGSRTPVVFGGGTKLTVL
B3: 1-3 (antibody, V domains shown)
VH: EVQLLESGGGLVQPGGSLRLSCAASGFTFSSQAMSWVRQAPGKGLEWVSAISGSGGGTYYADSVKGRFTISRDNSKNTLYLQMNSLRAEDTAVYYCAKDRRFGEFDPWGQGTLVTVSS
VL: B2 VL with T25I, R27S, R97S, T98S, P99F
B4: 1-47 (antibody, V domains shown)
VH: B3 VH
VL: B2 VL with R27S, D28G, T54I, R97S, T98S, P99F
notes: also called variant 1-47
B5: 1-10 (antibody, V domains shown)
VH: EVQLLESGGGLVQPGGSLRLSCAASGFTFSSYDMSWVRQAPGKGLEWVSVISGSGGSTYYADSVKGRFTISRDNSKNTLYLQMNSLRAEDTAVYYCAKGPLVGWYFDLWGQGTLVTVSS
VL: B2 VL with R27S, D28N, R97S, T98S, P99F
notes: also called variant 1-10
B6: 1-7 (antibody, V domains shown)
VH: B5 VH
VL: B2 VL with R27S, V29F, T54N, R97S, P99F
notes: also called variant 1-7
B7: 1-32 (antibody, V domains shown)
VH: B2 VH with T35Y
VL: QSALTQPASVSGSPGQSITISCTGTSSDVGGYNLVSWYQQHPGKAPKLMIYEGNKRPSGVSNRFSGSKSGNTASLTISGLQAEDEADYYCCSYAGSSTFPVVFGGGTKLTVL
notes: also called variant 1-32
B8: 1-22 (antibody, V domains shown)
VH: B1 VH
VL: B1 VL with S27T, Y31S, N54S, K55Q, G96S, V98T
B9: 1-51 (antibody, V domains shown)
VH: B1 VH with N35S, I50V
VL: B1 VL with Y31S, N33D, G96S
B10: 1-5 (antibody, V domains shown)
VH: B3 VH
VL: B2 VL with R27S, D28G, G53A, T54S, R97Y, P99F, V100A
B11: 1-7 (antibody, V domains shown)
VH: B5 VH
VL: B2 VL with R27S, V29F, T54N, R97S, P99F
B12: 1-26 (antibody, V domains shown)
VH: EVQLLESGGGLVQPGGSLRLSCAASGFTFSSYAISWVRQAPGKGLEWVSAISGSGYSTYYADSVKGRFTISRDNSKNTLYLQMNSLRAEDTAVYYCARGAPDSSGYYFQGEVYFDYWGQGTLVTVSS
VL: B2 VL with R27S, S31G, Y93F, A94V, G95R, R97S, T98A, P99H
B13: 1-21 (antibody, V domains shown)
VH: B1 VH with A33T, N35S
VL: QSALTQPASVSGSPGQSITISCTGTSSDVGSNNLVSWYQQHPGKAPKLMIYEGNKRPSGVSNRFSGSKSGNTASLTISGLQAEDEADYYCCSYAGSVVFGGGTKLTVL
B14: 1-10 (antibody, V domains shown)
VH: B5 VH
VL: B2 VL with R27S, D28N, R97S, T98S, P99F
B15: 1-9 (antibody, V domains shown)
VH: B5 VH
VL: B2 VL with R27S, S31D, T54S, K55N, R97S, T98S, P99F
B16: 1-8 (antibody, V domains shown)
VH: B5 VH
VL: QSALTQPASVSGSPGQSITISCTGTSNDVGSYNLVSWYQQHPGKAPKLMIYEGSKRPSGVSNRFSGSKSGNTASLTISGLQAEDEADYYCCSYAGSRYVVFGGGTKLTVL
B17: 1-52 (antibody, V domains shown)
VH: EVQLLESGGGLVQPGGSLRLSCAASGFTFSNYAMSWVRQAPGKGLEWVSAISGSAGSTYYADSVKGRFTISRDNSKNTLYLQMNSLRAEDTAVYYCARVRQGLRRTWYYFDYWGQGTLVTVSS
VL: B1 VL with Y31S, Y32S, N54S, G96S, S97L, V98Y

target: T1, SARS-CoV-2 Spike Glycoprotein S1 (subunit 1) (SARS-CoV-2, UniProt P0DTC2 16-685); assay: column DC/S1 (format not explained)
T1 construct: also called S1 Monomer; SARS-CoV-2 S1

In order of falling Kd:
1. B1  2040 nM
2. B3  253 nM
3. B2  4.7 nM

target: T2, SARS-CoV-2 S1 (antigen of the Carterra SPR kinetics) (SARS-CoV-2, UniProt P0DTC2 16-685); assay: Carterra SPR

In order of falling koff:
1. B7  0.317 s⁻¹
2. B4  0.24 s⁻¹
3. B6  0.17 s⁻¹
4. B5  0.147 s⁻¹

In order of falling kon:
1. B7  5.49e+06 M⁻¹ s⁻¹
2. B6  1.34e+06 M⁻¹ s⁻¹
3. B5  1.04e+06 M⁻¹ s⁻¹
4. B4  6320 M⁻¹ s⁻¹

target: T1, SARS-CoV-2 Spike Glycoprotein S1 …; assay: ELISA binding titration

In order of falling EC50:
1. B9  98.2 nM
2. B11  95.7 nM
3. B12  48.5 nM
4. B10  7.83 nM
5. B8  6.55 nM
6. B3  0.133 nM

target: T1, SARS-CoV-2 Spike Glycoprotein S1 …; assay: column Inhibitor IC50 (assay not explained)

In order of rising IC50:
1. B13  6.7 nM
2. B12  8 nM
3. B3  15.7 nM
4. B14  17.7 nM
5. B2  25.3 nM
6. B8  73.2 nM
7. B16  97.3 nM
8. B15  282 nM
9. B17  740 nM

target: T2, SARS-CoV-2 S1 (antigen of the Carterra …); assay: Carterra SPR; remark: another data set of the same source

In order of rising Kd:
1. B7  57.8 nM
2. B6  127 nM
3. B5  142 nM
4. B4  38000 nM

In order of rising koff:
1. B5  0.147 s⁻¹
2. B6  0.17 s⁻¹
3. B4  0.24 s⁻¹
4. B7  0.317 s⁻¹

In order of rising kon:
1. B4  6320 M⁻¹ s⁻¹
2. B5  1.04e+06 M⁻¹ s⁻¹
3. B6  1.34e+06 M⁻¹ s⁻¹
4. B7  5.49e+06 M⁻¹ s⁻¹

target: T1, SARS-CoV-2 Spike Glycoprotein S1 …; assay: screening phage ELISA, mean

In order of rising “ELISA (Avg)” value:
1. B17  3.5
2. B9  7.1
3. B14  16.9
4. B15  18.5
5. B16  19.3
6. B12  19.5
7. B10  20.6
8. B11  22.5
9. B3  23.9
10. B2  29.5
11. B1  32.9
12. B8  40.6
13. B13  47.6

target: T1, SARS-CoV-2 Spike Glycoprotein S1 …; assay: screening phage ELISA, mean; remark: another data set of the same source

In order of falling “ELISA (Avg)” value:
1. B13  47.6
2. B8  40.6
3. B1  32.9
4. B2  29.5
5. B3  23.9
6. B11  22.5
7. B10  20.6
8. B12  19.5
9. B16  19.3
10. B15  18.5
11. B14  16.9
12. B9  7.1
13. B17  3.5

target: T3, COVID S1 RBD Fc fusion (Antigen 1) (SARS-CoV-2, UniProt P0DTC2 319-541); assay: phage ELISA
T3 construct: domain: RBD

In order of falling “ELISA fold over background” value:
1. B5  17.4 fold over background
2. B4  5.5 fold over background
3. B6  3.3 fold over background

target: T4, S1-Fc (SARS-CoV-2, UniProt P0DTC2 16-685); assay: phage ELISA

In order of falling “ELISA fold over background” value:
1. B7  4 fold over background
2. B6  1.7 fold over background
3. B5  1.3 fold over background
4. B4  1.2 fold over background

target: T5, COVID S1 RBM Fc fusion (Antigen 2) (SARS-CoV-2, UniProt P0DTC2 437-508); assay: phage ELISA
T5 construct: domain: RBM

In order of falling “ELISA fold over background” value:
1. B6  1.6 fold over background
2. B5  1.1 fold over background
3. B7  1.1 fold over background
4. B4  0.9 fold over background

target: T3, COVID S1 RBD Fc fusion (Antigen 1); assay: phage ELISA; remark: another data set of the same source

In order of rising “ELISA fold over background” value:
1. B6  3.3 fold over background
2. B4  5.5 fold over background
3. B5  17.4 fold over background

target: T4, S1-Fc; assay: phage ELISA; remark: another data set of the same source

In order of falling “ELISA fold over background” value:
1. B7  4 fold over background
2. B6  1.7 fold over background
3. B5  1.3 fold over background
4. B4  1.2 fold over background

target: T5, COVID S1 RBM Fc fusion (Antigen 2); assay: phage ELISA; remark: another data set of the same source

In order of rising “ELISA fold over background” value:
1. B4  0.9 fold over background
2. B5  1.1 fold over background
3. B7  1.1 fold over background
4. B6  1.6 fold over background
